Target: the molecule itself
Assay: native gel or EMSA

B1: Human recombinant ALDH2 protein (mitochondrial aldehyde dehydrogenase), untreated (enzyme, UniProt P05091 18-517, looked up)
chain: SAAATQAVPAPNQQPEVFCNQIFINNEWHDAVSRKTFPTVNPSTGEVICQVAEGDKEDVDKAVKAARAAFQLGSPWRRMDASHRGRLLNRLADLIERDRTYLAALETLDNGKPYVISYLVDLDMVLKCLRYYAGWADKYHGKTIPIDGDFFSYTRHEPVGVCGQIIPWNFPLLMQAWKLGPALATGNVVVMKVAEQTPLTALYVANLIKEAGFPPGVVNIVPGFGPTAGAAIASHEDVDKVAFTGSTEIGRVIQVAAGSSNLKRVTLELGGKSPNIIMSDADMDWAVEQAHFALFFNQGQCCCAGSRTFVQEDIYDEFVERSVARAKSRVVGNPFDSKTEQGPQVDETQFKKILGYINTGKQEGAKLLCGGGIAADRGYFIQPTVFGDVQDGMTIAKEEIFGPVMQILKFKTIEEVVGRANNSTYGLAAAVFTKDLDKANYLSQALQAGTVWVNCYDVFGAQSPFGGYKMSGSGRELGEYGLQAYTEVKTVTVKVPQKNS
B1: binds.

— paper PMC5513672 (Chemical research in toxicology, 2017)
